Biological target: T1, AlexaFluor488-labeled human PLCβ3-Δ892 R872A L876A L879A triple mutant (human, UniProt Q01970 10-891, R872A | L876A | L879A)
T1 sequence: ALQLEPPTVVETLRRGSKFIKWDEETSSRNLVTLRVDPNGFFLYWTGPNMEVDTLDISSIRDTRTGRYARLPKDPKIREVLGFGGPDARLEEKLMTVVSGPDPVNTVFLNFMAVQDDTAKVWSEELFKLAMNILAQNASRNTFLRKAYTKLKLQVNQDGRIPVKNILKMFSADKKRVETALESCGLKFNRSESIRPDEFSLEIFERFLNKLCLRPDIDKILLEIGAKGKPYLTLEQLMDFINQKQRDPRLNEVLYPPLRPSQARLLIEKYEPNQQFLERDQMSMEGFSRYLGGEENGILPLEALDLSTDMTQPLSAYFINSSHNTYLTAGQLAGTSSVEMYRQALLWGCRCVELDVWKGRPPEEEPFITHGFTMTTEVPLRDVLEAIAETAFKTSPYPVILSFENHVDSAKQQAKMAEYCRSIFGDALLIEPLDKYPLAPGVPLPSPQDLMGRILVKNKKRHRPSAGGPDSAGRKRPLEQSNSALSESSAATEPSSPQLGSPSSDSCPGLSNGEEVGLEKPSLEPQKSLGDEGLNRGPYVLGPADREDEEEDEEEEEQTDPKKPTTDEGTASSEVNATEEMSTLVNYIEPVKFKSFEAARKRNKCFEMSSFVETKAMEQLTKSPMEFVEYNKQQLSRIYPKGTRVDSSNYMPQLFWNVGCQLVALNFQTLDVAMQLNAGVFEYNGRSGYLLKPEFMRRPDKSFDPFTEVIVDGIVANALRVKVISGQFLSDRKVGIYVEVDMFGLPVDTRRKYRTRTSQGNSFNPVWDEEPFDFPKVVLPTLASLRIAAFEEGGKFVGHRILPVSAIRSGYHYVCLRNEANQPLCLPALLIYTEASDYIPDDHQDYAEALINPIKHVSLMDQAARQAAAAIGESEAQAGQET
Assay: flow cytometry protein interaction assay

B1: Gαi/q chimera (murine Gαq with its N-terminal helix replaced with that of Gαi), biotinylated, AlF4-activated (other)
chain: MGCTLSAEDKAAVERSKMIDRNLREDGEKARRELKLLLLGTGESGKSTFIKQMRIIHGSGYSDEDKRGFTKLVYQNIFTAMQAMIRAMDTLKIPYKYEHNKAHAQLVREVDVEKVSAFENPYVDAIKSLWNDPGIQECYDRRREYQLSDSTKYYLNDLDRVADPSYLPTQQDVLRVRVPTTGIIEYPFDLQSVIFRMVDVGGQRSERRKWIHCFENVTSIMFLVALSEYDQVLVESDNENRMEESKALFRTIITYPWFQNSSVILFLNKKDLLEEKIMYSHLVDYFPEYDGPQRDAQAAREFILKMFVDLNPDSDKIIYSHFTCATDTENIRFVFAAVKDTILQLNLKEYNLV
modifications: biotinylated (sites not given)
Kd: 20.5 nM

From publication PMC3168981 (Nature structural & molecular biology, 2011)
